Values quoted from earlier work as cited in patent US10023622B2, “Method of immunization for reducing toxic damaged caused by oligomeric form of the amyloid-beta protein with stable amyloid beta monomers and oligomers” (ALZINOVA AB, priority 2008, dated 2018).

Settings: oxidized derivatives (cystines)

Fibrillation of oxidized disulphide mutants, all fibrillate:
V18C/L34C: previously published Aβ peptide disulphide mutant (Wetzel et al.), L17C/L34C: previously published Aβ peptide disulfide mutant (Shivaprasad and Wetzel), F19C/I32C: previously published Aβ peptide disulphide mutant (Wetzel et al.), F19C/A30C: previously published Aβ peptide disulphide mutant (Wetzel et al.), L17C/M35C: previously published Aβ peptide disulfide mutant (Shivaprasad and Wetzel), F19C/L34C: previously published Aβ peptide disulphide mutant (Wetzel et al.)
